*1 amine or outer side, *2 acyl side, *3 side chain or, on linkers, in order; H or OH if unused. Where no end group is shown, it is not given here. Side-chain parts run from the residue outwards. [ ]: non-standard residue; d: D form. The star is where a group is joined. phenyl lactic acid = phenyl lactic acid at the N-terminus; C16 diacid = O=C(O)CCCCCCCCCCCCCCC(=O)*; γGlu = O=C(O)[C@H](CCC(=O)[*:2])N[*:1]; Aib = CC(C)(N)C(=O)O
T1: human GIP receptor (human, UniProt P48546 22-466)
T1 sequence (looked up): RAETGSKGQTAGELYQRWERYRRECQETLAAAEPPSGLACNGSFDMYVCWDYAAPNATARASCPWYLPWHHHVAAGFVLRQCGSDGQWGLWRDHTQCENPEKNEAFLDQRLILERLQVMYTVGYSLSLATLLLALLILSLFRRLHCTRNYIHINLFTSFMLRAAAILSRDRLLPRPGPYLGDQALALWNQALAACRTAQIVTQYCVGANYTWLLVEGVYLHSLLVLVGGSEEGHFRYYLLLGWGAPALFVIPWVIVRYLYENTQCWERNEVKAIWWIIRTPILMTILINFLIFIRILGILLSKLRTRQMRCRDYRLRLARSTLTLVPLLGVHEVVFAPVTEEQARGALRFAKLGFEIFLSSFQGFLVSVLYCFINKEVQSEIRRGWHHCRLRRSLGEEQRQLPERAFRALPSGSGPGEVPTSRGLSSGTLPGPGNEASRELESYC

B1: AT646 (peptide)
peptide: GETFISTYSIALDKIK(C16 diacid)QQDFVEWLLAQKPSSGAPPPS-OH
modifications: N-terminus assumed
SMILES: CC[C@H](C)[C@H](NC(=O)[C@H](CO)NC(=O)[C@H](Cc1ccc(O)cc1)NC(=O)[C@@H](NC(=O)[C@H](CO)NC(=O)[C@@H](NC(=O)[C@H](Cc1ccccc1)NC(=O)[C@@H](NC(=O)[C@H](CCC(=O)O)NC(=O)CN)[C@@H](C)O)[C@@H](C)CC)[C@@H](C)O)C(=O)N[C@@H](C)C(=O)N[C@@H](CC(C)C)C(=O)N[C@@H](CC(=O)O)C(=O)N[C@@H](CCCCN)C(=O)N[C@H](C(=O)N[C@@H](CCCCNC(=O)CCCCCCCCCCCCCCC(=O)O)C(=O)N[C@@H](CCC(N)=O)C(=O)N[C@@H](CCC(N)=O)C(=O)N[C@@H](CC(=O)O)C(=O)N[C@@H](Cc1ccccc1)C(=O)N[C@H](C(=O)N[C@@H](CCC(=O)O)C(=O)N[C@@H](Cc1c[nH]c2ccccc12)C(=O)N[C@@H](CC(C)C)C(=O)N[C@@H](CC(C)C)C(=O)N[C@@H](C)C(=O)N[C@@H](CCC(N)=O)C(=O)N[C@@H](CCCCN)C(=O)N1CCC[C@H]1C(=O)N[C@@H](CO)C(=O)N[C@@H](CO)C(=O)NCC(=O)N[C@@H](C)C(=O)N1CCC[C@H]1C(=O)N1CCC[C@H]1C(=O)N1CCC[C@H]1C(=O)N[C@@H](CO)C(=O)O)C(C)C)[C@@H](C)CC
B2: AT643 (peptide)
peptide: DTTFISDYSIAMDKIK(C16 diacid)QQDFVNWLLAQKPSSGAPPPS-OH
modifications: N-terminus assumed
SMILES: CC[C@H](C)[C@H](NC(=O)[C@H](CO)NC(=O)[C@H](Cc1ccc(O)cc1)NC(=O)[C@H](CC(=O)O)NC(=O)[C@H](CO)NC(=O)[C@@H](NC(=O)[C@H](Cc1ccccc1)NC(=O)[C@@H](NC(=O)[C@@H](NC(=O)[C@@H](N)CC(=O)O)[C@@H](C)O)[C@@H](C)O)[C@@H](C)CC)C(=O)N[C@@H](C)C(=O)N[C@@H](CCSC)C(=O)N[C@@H](CC(=O)O)C(=O)N[C@@H](CCCCN)C(=O)N[C@H](C(=O)N[C@@H](CCCCNC(=O)CCCCCCCCCCCCCCC(=O)O)C(=O)N[C@@H](CCC(N)=O)C(=O)N[C@@H](CCC(N)=O)C(=O)N[C@@H](CC(=O)O)C(=O)N[C@@H](Cc1ccccc1)C(=O)N[C@H](C(=O)N[C@@H](CC(N)=O)C(=O)N[C@@H](Cc1c[nH]c2ccccc12)C(=O)N[C@@H](CC(C)C)C(=O)N[C@@H](CC(C)C)C(=O)N[C@@H](C)C(=O)N[C@@H](CCC(N)=O)C(=O)N[C@@H](CCCCN)C(=O)N1CCC[C@H]1C(=O)N[C@@H](CO)C(=O)N[C@@H](CO)C(=O)NCC(=O)N[C@@H](C)C(=O)N1CCC[C@H]1C(=O)N1CCC[C@H]1C(=O)N1CCC[C@H]1C(=O)N[C@@H](CO)C(=O)O)C(C)C)[C@@H](C)CC
B3: AT650 (peptide)
peptide: EGTFISDYSIAMDKIK(C16 diacid)QQDFVNWLLAQKPSSGAPPPS-NH2
modifications: N-terminus assumed
SMILES: CC[C@H](C)[C@H](NC(=O)[C@H](CO)NC(=O)[C@H](Cc1ccc(O)cc1)NC(=O)[C@H](CC(=O)O)NC(=O)[C@H](CO)NC(=O)[C@@H](NC(=O)[C@H](Cc1ccccc1)NC(=O)[C@@H](NC(=O)CNC(=O)[C@@H](N)CCC(=O)O)[C@@H](C)O)[C@@H](C)CC)C(=O)N[C@@H](C)C(=O)N[C@@H](CCSC)C(=O)N[C@@H](CC(=O)O)C(=O)N[C@@H](CCCCN)C(=O)N[C@H](C(=O)N[C@@H](CCCCNC(=O)CCCCCCCCCCCCCCC(=O)O)C(=O)N[C@@H](CCC(N)=O)C(=O)N[C@@H](CCC(N)=O)C(=O)N[C@@H](CC(=O)O)C(=O)N[C@@H](Cc1ccccc1)C(=O)N[C@H](C(=O)N[C@@H](CC(N)=O)C(=O)N[C@@H](Cc1c[nH]c2ccccc12)C(=O)N[C@@H](CC(C)C)C(=O)N[C@@H](CC(C)C)C(=O)N[C@@H](C)C(=O)N[C@@H](CCC(N)=O)C(=O)N[C@@H](CCCCN)C(=O)N1CCC[C@H]1C(=O)N[C@@H](CO)C(=O)N[C@@H](CO)C(=O)NCC(=O)N[C@@H](C)C(=O)N1CCC[C@H]1C(=O)N1CCC[C@H]1C(=O)N1CCC[C@H]1C(=O)N[C@@H](CO)C(N)=O)C(C)C)[C@@H](C)CC
B4: AT642 (peptide)
peptide: PETFISDYSIAMDKIK(C16 diacid)QQDFVNWLLAQKPSSGAPPPS-OH
modifications: N-terminus assumed
SMILES: CC[C@H](C)[C@H](NC(=O)[C@H](CO)NC(=O)[C@H](Cc1ccc(O)cc1)NC(=O)[C@H](CC(=O)O)NC(=O)[C@H](CO)NC(=O)[C@@H](NC(=O)[C@H](Cc1ccccc1)NC(=O)[C@@H](NC(=O)[C@H](CCC(=O)O)NC(=O)[C@@H]1CCCN1)[C@@H](C)O)[C@@H](C)CC)C(=O)N[C@@H](C)C(=O)N[C@@H](CCSC)C(=O)N[C@@H](CC(=O)O)C(=O)N[C@@H](CCCCN)C(=O)N[C@H](C(=O)N[C@@H](CCCCNC(=O)CCCCCCCCCCCCCCC(=O)O)C(=O)N[C@@H](CCC(N)=O)C(=O)N[C@@H](CCC(N)=O)C(=O)N[C@@H](CC(=O)O)C(=O)N[C@@H](Cc1ccccc1)C(=O)N[C@H](C(=O)N[C@@H](CC(N)=O)C(=O)N[C@@H](Cc1c[nH]c2ccccc12)C(=O)N[C@@H](CC(C)C)C(=O)N[C@@H](CC(C)C)C(=O)N[C@@H](C)C(=O)N[C@@H](CCC(N)=O)C(=O)N[C@@H](CCCCN)C(=O)N1CCC[C@H]1C(=O)N[C@@H](CO)C(=O)N[C@@H](CO)C(=O)NCC(=O)N[C@@H](C)C(=O)N1CCC[C@H]1C(=O)N1CCC[C@H]1C(=O)N1CCC[C@H]1C(=O)N[C@@H](CO)C(=O)O)C(C)C)[C@@H](C)CC
B5: AT647 (peptide)
peptide: EGTFISTYK([γGlu-C16 diacid])IALDKIHQQDFVEWLLAQKPSSGAPPPS-OH
B6: AT665 (peptide)
peptide: EGTFISDYSI[Aib]MDKIK(C16 diacid)QQDFVEWLLAQKPSSGAPPPS-OH
B7: AT641 (peptide)
peptide: GETFISDYSIAMDKIK(C16 diacid)QQDFVNWLLAQKPSSGAPPPS-OH
modifications: N-terminus assumed
SMILES: CC[C@H](C)[C@H](NC(=O)[C@H](CO)NC(=O)[C@H](Cc1ccc(O)cc1)NC(=O)[C@H](CC(=O)O)NC(=O)[C@H](CO)NC(=O)[C@@H](NC(=O)[C@H](Cc1ccccc1)NC(=O)[C@@H](NC(=O)[C@H](CCC(=O)O)NC(=O)CN)[C@@H](C)O)[C@@H](C)CC)C(=O)N[C@@H](C)C(=O)N[C@@H](CCSC)C(=O)N[C@@H](CC(=O)O)C(=O)N[C@@H](CCCCN)C(=O)N[C@H](C(=O)N[C@@H](CCCCNC(=O)CCCCCCCCCCCCCCC(=O)O)C(=O)N[C@@H](CCC(N)=O)C(=O)N[C@@H](CCC(N)=O)C(=O)N[C@@H](CC(=O)O)C(=O)N[C@@H](Cc1ccccc1)C(=O)N[C@H](C(=O)N[C@@H](CC(N)=O)C(=O)N[C@@H](Cc1c[nH]c2ccccc12)C(=O)N[C@@H](CC(C)C)C(=O)N[C@@H](CC(C)C)C(=O)N[C@@H](C)C(=O)N[C@@H](CCC(N)=O)C(=O)N[C@@H](CCCCN)C(=O)N1CCC[C@H]1C(=O)N[C@@H](CO)C(=O)N[C@@H](CO)C(=O)NCC(=O)N[C@@H](C)C(=O)N1CCC[C@H]1C(=O)N1CCC[C@H]1C(=O)N1CCC[C@H]1C(=O)N[C@@H](CO)C(=O)O)C(C)C)[C@@H](C)CC
B8: AT644 (peptide)
peptide: GETFISDYAIALDKIK(C16 diacid)QQDFVEWLLAQGPSSGAPPPS-OH
modifications: N-terminus assumed
SMILES: CC[C@H](C)[C@H](NC(=O)[C@H](C)NC(=O)[C@H](Cc1ccc(O)cc1)NC(=O)[C@H](CC(=O)O)NC(=O)[C@H](CO)NC(=O)[C@@H](NC(=O)[C@H](Cc1ccccc1)NC(=O)[C@@H](NC(=O)[C@H](CCC(=O)O)NC(=O)CN)[C@@H](C)O)[C@@H](C)CC)C(=O)N[C@@H](C)C(=O)N[C@@H](CC(C)C)C(=O)N[C@@H](CC(=O)O)C(=O)N[C@@H](CCCCN)C(=O)N[C@H](C(=O)N[C@@H](CCCCNC(=O)CCCCCCCCCCCCCCC(=O)O)C(=O)N[C@@H](CCC(N)=O)C(=O)N[C@@H](CCC(N)=O)C(=O)N[C@@H](CC(=O)O)C(=O)N[C@@H](Cc1ccccc1)C(=O)N[C@H](C(=O)N[C@@H](CCC(=O)O)C(=O)N[C@@H](Cc1c[nH]c2ccccc12)C(=O)N[C@@H](CC(C)C)C(=O)N[C@@H](CC(C)C)C(=O)N[C@@H](C)C(=O)N[C@@H](CCC(N)=O)C(=O)NCC(=O)N1CCC[C@H]1C(=O)N[C@@H](CO)C(=O)N[C@@H](CO)C(=O)NCC(=O)N[C@@H](C)C(=O)N1CCC[C@H]1C(=O)N1CCC[C@H]1C(=O)N1CCC[C@H]1C(=O)N[C@@H](CO)C(=O)O)C(C)C)[C@@H](C)CC
B9: AT652 (peptide)
peptide: {phenyl lactic acid}-PGTFISDYSIAMDKIKQQDFVNWLLAQKPSSGAPPPSK(C16 diacid)-NH2
modifications: not fully specified

What follows are binders tested against T1, human GIP receptor (assay: cell-based or functional assay).

B1 and B2 are the same in “cAMP agonism % Emax” value: 0% for the first, 0% for the second.

B3 and B4 are the same in “cAMP agonism % Emax” value: 0% for the first, 0% for the second.

B5 and B6 are the same in “cAMP agonism % Emax” value: 0% for the first, 0% for the second.

B7 and B8 are the same in “cAMP agonism % Emax” value: 0% for the first, 0% for the second.

In the case of B9, the “cAMP agonism % Emax” value is reported as 17%.

B1 and B2 are within 1.5-fold of each other in “cAMP antagonism” value: 10 nM for the first, 11.2 nM for the second.

Compared with B3, B4 is 9.6-fold higher in “cAMP antagonism” value: 3.69 nM for the first, 35.5 nM for the second.

Going from B5 to B6, the “cAMP antagonism” value falls from 18.8 nM to 0.15 nM (130-fold).

Going from B7 to B8, the “cAMP antagonism” value rises from 7.94 nM to 17.1 nM (2.2-fold).

In the case of B9, the “cAMP antagonism” value is reported as 10.6 nM.

Going from B1 to B2, the “cAMP antagonism % inhib” value falls from 96% to 90%.

Going from B3 to B4, the “cAMP antagonism % inhib” value falls from 94% to 92%.

Compared with B5, B6 is lower in “cAMP antagonism % inhib” value: 100% for the first, 88% for the second.

First: B7
Second: B8
The “cAMP antagonism % inhib” value of the first is lower: 91% for the first, 93% for the second.

In the case of B9, the “cAMP antagonism % inhib” value is reported as 60%.

B1 and B2 are the same in “cAMP antagonism pIC50” value: 8 for the first, 8 for the second.

First: B3
Second: B4
The “cAMP antagonism pIC50” value of the first is higher: 8.4 for the first, 7.5 for the second.

First: B5
Second: B6
The “cAMP antagonism pIC50” value of the first is lower: 7.7 for the first, 9.8 for the second.

Going from B7 to B8, the “cAMP antagonism pIC50” value falls from 8.1 to 7.8.

B9 was tested, and the “cAMP antagonism pIC50” value was 8.

— patent publication US20220298218A1 (ANTAG THERAPEUTICS, published 2022)
